For one assay, the system named is RA patients. The assay can be described thus: Phase I clinical trial of mucosal tolerization to dnaJP1. The settings on record: 15 RA patients, by mouth, 6 months. It is filed as in vivo, human. The procedure: FIGS. 26A to 26E show the results of treatment-induced modulation of T cell responses to dnaJP1. […] Evaluation was performed at monthly intervals. Controls included PHA as a general mitogen and dnaJpv (SEQ ID NO:28). Evaluation by FACS at monthly intervals of intracellular cytokine production (pro-inflammatory—FIGS. 26 B, C and D; toleragenic—FIG. 26E) by PBMC of the patients who were responsive at the screening. Results are expressed as % CD3+ cells in dnaJP1 stimulated/unstimulated cultures.
In the Phase I clinical trial, 15 RA patients were treated with three different doses of dnaJP1 (four times per day, by mouth) for 6 months. Entry criteria required clinically active disease and pro-inflammatory T cell responsiveness in vitro to the peptide.

The test system of assay [1] is SFMC from patients with persistent oJIA. Description: FACS analysis of CTLA+/CD25/CD4 positive cells after peptide stimulation. It is filed as cell-based, human. The settings on record: FIG. 24A. From the text: “TC” indicates tissue culture not stimulated. Bars represent SD.
FACS analysis was used to evaluate the percent of CTLA+/CD25/CD4 positive cells following stimulation of representative SFMC from patients with persistent oJIA with non-homologous human peptide 134. The % of CTLA+/CD25/CD4 positive cells, which are believed to have a regulatory function, was higher in the peptide treated cells as compared to cells maintained under control conditions (FIG. 24A). Expansion of the regulatory cells in response to peptide 134 correlated well with production of IL-10 in the same culture conditions (FIG. 24B).
In general terms: Flow cytometry measures light scatter and fluorescence of single cells or particles in a stream.

The test system of assay [2] is SFMC from patients with oJIA. The assay can be described thus: Proliferative response of SFMC incubated with dnaJ and restimulated with autologous feeder cells plus peptide. It is filed as cell-based, human. The settings on record: persistent n=16, extended n=15; p=0.05. How it is done:
Results, expressed as stimulation index (SI), are shown as mean+SD.
In order to identify possible relevant epitopes on the bacterial dnaJ protein, PBMC and SFMC of patients with oJIA were incubated for 72 hr with dnaJ, and restimulated with autologous feeder cells the in presence or absence of selected E. coli derived MHC class II binder peptides for 96 hr.
(§1) In order to evaluate whether human homologous peptides could be the target of cross-recognition leading to self reactivity, human peptides derived from regions of HSJ1, HDJ1, or HDJ2 having sequence homology with E. coli dnaJ were studied. SFMC of 14 patients with oJIA presenting a SI to the recombinant E. coli hsp dnaJ greater than 3 were restimulated for 96 hr with autologous cells in presence or absence of human peptide 2, 3, or 5, which are homologs of bacterial peptide 4; human peptide 20, 21, or 23, which are homologs of bacterial peptide 22; or human peptide 164, 167, or 176, which are homologs of bacterial peptide 174. SFMC proliferative responses, pro-inflammatory cytokine production, and anti-inflammatory IL-4 levels were overall similar between the peptides derived from human dnaJ proteins and the homologous bacterial peptides.
Results are expressed as SI or pg/ml (mean+SD). […]
To explore the possible correlation of clinical features with the development of peptide-induced immune modulation, oJIA patients were grouped according to the course of disease, including those with persistent disease (n=16), and those with extended disease (n=15) o-JIA. (FIG. 25).

Assay [3] deals with SFMC from patients with oJIA. The assay can be described thus: Cytokine production in culture supernatants of SFMC incubated with dnaJ and restimulated with autologous feeder cells plus peptide. It is filed as cell-based, human.
Text: Results are expressed as pg/ml (mean+SD).
Cytokine production to the same peptides was examined in culture supernatants of SFMC from patients with oJIA. […] SFMC from only one of 21 patients with oJIA produced detectable levels of the anti-inflammatory cytokine IL-10, and none produced detectable levels of IL-4.
as §1
Results are expressed as SI or pg/ml (mean+SD).

Assay [4] relates to PBMC and SFMC from healthy controls and patients with oJIA. Description: Cytokine production in culture supernatants of PBMC or SFMC stimulated with recombinant E. coli hsp dnaJ for 72 hr. It is filed as cell-based, human. How it is done: Results, expressed as pg/ml, are shown as mean+SD.
The production of the pro-inflammatory cytokines interferon-gamma (IFNγ) and tumor necrosis factor-alpha (TNFα), and the anti-inflammatory cytokines interleukin-4 (IL-4) and IL-10 was evaluated in culture supernatants of PBMC from healthy controls and in PBMC-SFMC paired samples from patients with oJIA incubated for 72 hr with or without dnaJ.

In assay [5] the test system is peripheral blood mononuclear cells (PBMC). Description: Proliferative response (stimulation index) of PBMC stimulated with antigen for 96 hr. Particulars: 10 healthy subjects vs 21 patients with oJIA. It is filed as cell-based, human.
Assay [6] relates to CD3+CD69+ cells in PBMC and SFMC. The assay can be described thus: Evaluation of activated CD3+CD69+ T cells after incubation with recombinant E. coli hsp dnaJ. It is filed as cell-based, human. The settings on record: p=0.0002. The procedure:
FIG. 1B provides an evaluation of CD69+ T cells from healthy subjects (CTRL) and patients with oJIA following 72 hour incubation with recombinant E. coli hsp dnaJ. Results, expressed as percentage CD3+CD69+ cells, are shown as mean+SD.
To evaluate whether dnaJ-specific T cells were enriched at the synovial sites of inflammation, synovial fluid mononuclear cells (SFMC) from all patients with oJIA were stimulated with dnaJ for 96 hr.

In assay [7] the test system is synovial fluid mononuclear cells (SFMC) from patients with oJIA. The assay can be described thus: Proliferative response (stimulation index) of SFMC stimulated with antigen for 96 hr. It is filed as cell-based, human. Particulars: for ratio SI SFMC/SI PBMC, dnaJ compared with TT: paired PBMC-SFMC samples from oJIA patients.

Consider “QKRAAYDQYGHAAFE (listed as Escherichia coli) [dnaJP1]”, for which, in the assay on RA patients, the “treatment-induced change of T cell cytokine responses” value is on record as “dramatic immune deviation from pro-inflammatory to regulatory-type cytokines”.

Turning to “SGPFFTFSSSFPGHS (listed as Homo sapiens) [Peptide 134, non-homologous human peptide (HSJ1)]”, in assay [1], the “% of CTLA+/CD25/CD4 positive cells vs control conditions” value is reported as “higher”. In addition, in assay [2], the “Proliferative responses, extended disease vs persistent o-JIA” value is listed as “significantly lower”. The “IL-10 production, extended disease vs persistent o-JIA” value in assay [3] (p=0.0012) is listed as “highly significant difference”. Moreover, in assay [3] (p=0.076), the “IFN production, extended disease vs persistent o-JIA” value is listed as “border line level of statistical significance”.

B1: dnaJ: recombinant E. coli heat shock protein dnaJ (protein, UniProt P08622 2-376, looked up)
Chaperone protein DnaJ: AKQDYYEILGVSKTAEEREIRKAYKRLAMKYHPDRNQGDKEAEAKFKEIKEAYEVLTDSQKRAAYDQYGHAAFEQGGMGGGGFGGGADFSDIFGDVFGDIFGGGRGRQRAARGADLRYNMELTLEEAVRGVTKEIRIPTLEECDVCHGSGAKPGTQPQTCPTCHGSGQVQMRQGFFAVQQTCPHCQGRGTLIKDPCNKCHGHGRVERSKTLSVKIPAGVDTGDRIRLAGEGEAGEHGAPAGDLYVQVQVKQHPIFEREGNNLYCEVPINFAMAALGGEIEVPTLDGRVKLKVPGETQTGKLFRMRGKGVKSVRGGAQGDLLCRVVVETPVGLNERQKQLLQELQESFGGPTGEHNSPRSKSFFDGVKKFFDDLTR
B1: in assay [4] (72 hr), the “cytokine production from PBMC of patients and controls” value is on record as “no difference”. Besides, in assay [4] (controls and patients, supernatants from PBMC and SFMC), the IL-4 levels entry was “below the detection limit”. Further, in assay [4] (oJIA patients, 72 hr), the “IL-10 production, SFMC vs PBMC” value is “comparable in the two compartments” and the “TNFα production, SFMC vs PBMC” value was “comparable in the two compartments”. The “IFNγ production, SFMC vs PBMC” value in assay [4] (oJIA patients, 72 hr, p<0.01) is on record as “significantly higher production”. Besides, in assay [5], the “Proliferative responses of PBMC, healthy subjects vs oJIA patients” value is “not significantly different”. The “percentage of activated T cells (CD3+CD69+ cells), SFMC with respect to PBMC” value in assay [6] is “significantly higher”. In addition, in assay [7] (oJIA patients, 96 hr, p=0.01), the “mean stimulation index (SI) of SFMC vs corresponding PBMC” value was “significantly higher”. Further, the “ratio SI SFMC/SI PBMC, dnaJ compared with TT” value in assay [7] is reported as “significantly (p=0.038) higher”. Moreover, the “ratio SI SFMC/SI PBMC, dnaJ compared with TT” value in assay [7] (listed as recombinant dnaJ) is “significantly (p<0.02) greater”.

Values taken from patent US7301005B2, “Immunomodulatory peptides derived from heat shock proteins and uses thereof” (priority 2000, dated 2007).
